The target in assay [1] is human leucine-rich repeat kinase 2 (LRRK2), full-length, recombinant (human) (UniProt Q5S007). The assay is described as follows: cryo-EM structure.
Assay [2] addresses human leucine-rich repeat kinase 2 (LRRK2), full-length, recombinant (human, UniProt Q5S007 1-2527, R50H | S1647T | M2397T). As to the kind of experiment: cryo-EM structure.

Where “and” joins values, the source holds several entries; their conditions need not be identical. Equal values may be shown once.

Sequence of human leucine-rich repeat kinase 2 (LRRK2), full-length, recombinant (Q5S007 whole entry R50H/S1647T/M2397T): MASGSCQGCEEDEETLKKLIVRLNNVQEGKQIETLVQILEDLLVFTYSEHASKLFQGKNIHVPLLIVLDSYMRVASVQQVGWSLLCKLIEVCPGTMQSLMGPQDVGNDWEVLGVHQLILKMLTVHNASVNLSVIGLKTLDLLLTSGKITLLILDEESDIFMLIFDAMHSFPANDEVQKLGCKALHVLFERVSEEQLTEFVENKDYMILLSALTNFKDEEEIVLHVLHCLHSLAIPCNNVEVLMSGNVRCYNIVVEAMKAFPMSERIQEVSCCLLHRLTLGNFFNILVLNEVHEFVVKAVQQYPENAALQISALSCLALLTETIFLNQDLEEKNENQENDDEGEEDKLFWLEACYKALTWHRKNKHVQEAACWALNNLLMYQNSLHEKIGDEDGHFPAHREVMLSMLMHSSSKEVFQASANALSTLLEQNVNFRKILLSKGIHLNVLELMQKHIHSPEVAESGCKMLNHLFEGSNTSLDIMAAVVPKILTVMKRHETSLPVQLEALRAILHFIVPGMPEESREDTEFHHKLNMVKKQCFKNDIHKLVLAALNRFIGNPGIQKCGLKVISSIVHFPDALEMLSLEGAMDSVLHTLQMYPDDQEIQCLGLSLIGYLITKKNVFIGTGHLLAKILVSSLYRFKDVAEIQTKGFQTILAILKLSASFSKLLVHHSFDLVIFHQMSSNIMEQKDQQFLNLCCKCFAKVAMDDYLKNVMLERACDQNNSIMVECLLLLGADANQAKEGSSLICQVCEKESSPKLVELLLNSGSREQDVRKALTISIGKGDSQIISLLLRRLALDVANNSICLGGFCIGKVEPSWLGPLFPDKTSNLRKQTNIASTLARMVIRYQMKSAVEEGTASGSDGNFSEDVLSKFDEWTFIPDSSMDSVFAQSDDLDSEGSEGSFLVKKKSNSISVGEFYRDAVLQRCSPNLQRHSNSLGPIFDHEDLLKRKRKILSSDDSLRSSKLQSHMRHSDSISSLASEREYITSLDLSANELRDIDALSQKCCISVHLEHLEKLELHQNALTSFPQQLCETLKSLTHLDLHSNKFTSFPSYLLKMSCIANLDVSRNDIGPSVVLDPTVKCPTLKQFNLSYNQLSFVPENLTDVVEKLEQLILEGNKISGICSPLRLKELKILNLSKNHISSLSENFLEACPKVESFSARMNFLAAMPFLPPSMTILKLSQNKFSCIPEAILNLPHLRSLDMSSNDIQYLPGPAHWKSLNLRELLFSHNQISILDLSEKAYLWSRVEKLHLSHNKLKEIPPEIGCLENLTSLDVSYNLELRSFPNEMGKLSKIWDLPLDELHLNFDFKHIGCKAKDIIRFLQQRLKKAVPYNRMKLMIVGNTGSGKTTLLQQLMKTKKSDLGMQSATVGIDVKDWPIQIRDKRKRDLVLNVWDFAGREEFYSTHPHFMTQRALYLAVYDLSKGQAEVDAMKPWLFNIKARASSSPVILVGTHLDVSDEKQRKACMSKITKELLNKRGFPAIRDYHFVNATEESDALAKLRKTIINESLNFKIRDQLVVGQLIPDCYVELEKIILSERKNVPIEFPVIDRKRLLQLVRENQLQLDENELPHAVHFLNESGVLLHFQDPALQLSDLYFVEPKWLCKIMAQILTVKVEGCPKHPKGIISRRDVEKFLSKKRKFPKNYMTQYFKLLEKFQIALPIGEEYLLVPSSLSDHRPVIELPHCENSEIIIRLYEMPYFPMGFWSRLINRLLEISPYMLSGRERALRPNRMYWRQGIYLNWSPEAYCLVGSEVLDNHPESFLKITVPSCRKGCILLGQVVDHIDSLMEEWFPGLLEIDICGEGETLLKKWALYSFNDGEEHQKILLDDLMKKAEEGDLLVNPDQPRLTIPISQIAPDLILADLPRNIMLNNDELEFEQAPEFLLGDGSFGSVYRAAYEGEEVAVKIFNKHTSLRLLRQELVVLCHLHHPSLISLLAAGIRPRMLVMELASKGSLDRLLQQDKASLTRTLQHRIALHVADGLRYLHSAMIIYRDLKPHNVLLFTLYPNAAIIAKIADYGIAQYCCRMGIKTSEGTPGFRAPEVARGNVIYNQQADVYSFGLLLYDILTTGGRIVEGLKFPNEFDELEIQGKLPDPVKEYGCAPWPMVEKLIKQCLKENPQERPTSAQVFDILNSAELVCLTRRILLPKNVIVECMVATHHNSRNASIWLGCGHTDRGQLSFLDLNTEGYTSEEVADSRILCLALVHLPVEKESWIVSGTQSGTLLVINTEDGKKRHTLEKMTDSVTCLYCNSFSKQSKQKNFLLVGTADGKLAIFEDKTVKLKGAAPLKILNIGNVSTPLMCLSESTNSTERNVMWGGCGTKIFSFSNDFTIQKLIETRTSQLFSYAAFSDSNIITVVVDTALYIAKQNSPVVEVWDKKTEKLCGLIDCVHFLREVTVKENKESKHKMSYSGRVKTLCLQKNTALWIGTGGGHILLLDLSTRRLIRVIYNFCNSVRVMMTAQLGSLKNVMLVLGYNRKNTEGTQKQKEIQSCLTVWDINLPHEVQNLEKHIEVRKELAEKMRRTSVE

Regarding “human leucine-rich repeat kinase 2 (LRRK2), full-length, recombinant, Q5S007 1-2527”, in assay [1], the stoichiometry N (LRRK2 protomers) was 2 and 4.

B1: Rab29 (residues 1-177) Q67L/T71A/S72A, GST tag removed (domain or fragment, human, UniProt O14966 1-177, looked up)
chain: MGSRDHLFKVLVVGDAAVGKTSLVQRYSQDSFSKHYKSTVGVDFALKVLQWSDYEIVRLQLWDIAGLERFAAMTRLYYRDASACVIMFDVTNATTFSNSQRWKQDLDSKLTLPNGEPVPCLLLANKCDLSPWAVSRDQIDRFSKENGFTGWTETSVKENKNINEAMRVLIEKMMRNS
By stoichiometry N is commonly meant the number of molecules, sites or subunits per partner or assembly. For B1, the “stoichiometry N” value in assay [2] is 1 Rab29 per LRRK2.

These data come from paper doi:10.1101/2022.04.26.489605 (bioRxiv, 2022).
